Assay results taken from the supplement of paper PMC10126150.
± gives the standard deviation of the averaged measurements.

Test system: ATP
Assay: switch fluorescence ratio, 500 uM ATP over buffer (Cy3 cluster intensity, sum of 5 cycles each) (fold (ratio)); higher = stronger signal-on switching upon ATP binding; sequences stand for … in TCGTCGGCAGCGTCAGATGTGTATAAGAGACAGTTTTTTTTTTTTTTTTTTTTTTTTT…TC
Conditions: aptamer strand: ATP DNA aptamer (quencher-CACCTGGGGGAGTATTGCGGAGGAAGG + anchor), 100 nM annealed; ATP concentration: 500 uM
Summary of the method: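 Cy3-labelled switching-strand clusters on a modified Illumina MiSeq flow-cell were annealed to 100 nM quencher-labelled ATP aptamer and imaged first in selection buffer, then after 15 min with 500 uM ATP at 22 °C. NaOH stripping and re-annealing separated each of five buffer/ATP cycles, and clusters outside 100-1000 RFU were excluded. The fluorescence ratio sums target-cycle Cy3 intensity over buffer-cycle Cy3 intensity per cluster and averages it per switch-domain sequence.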
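Further: ATP exposure 15 min at 22 °C before imaging.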

Sequence	switch fluorescence ratio
AGGCGATGCG	0.994 ± 0.097
AGGCGCACGG	1.01 ± 0.029
AGGCGGCGG	0.975 ± 0.022
AGGCGGGGGC	1.03 ± 0.068
AGGCGGTGTG	0.973 ± 0.036
AGGCGTATAC	1.79 ± 0.18
AGGCGTGCTT	0.987 ± 0.032
AGGCGTGGGA	1.001 ± 0.0083
AGGCGTGTCA	1.004 ± 0.0083
AGGCGTTCTG	0.991 ± 0.051
AGGCTAACGA	1.015 ± 0.0049
AGGCTAGGGG	1.01 ± 0.042
AGGCTATTTC	0.994 ± 0.019
AGGCTCATAG	0.96982 ± 0.00072
AGGCTCATTG	1.01 ± 0.033
AGGCTGCAG	0.961 ± 0.037
AGGCTGCGTT	1.02 ± 0.038
AGGCTGGGGT	1.02 ± 0.031
AGGCTTAGAC	1.04 ± 0.032
AGGCTTGGTG	0.988 ± 0.012
AGGCTTGTGT	0.99 ± 0.077
AGGCTTTTTT	0.966 ± 0.065
AGGGAAACGG	0.96 ± 0.018
AGGGAAAGTC	0.9854 ± 0.0058
AGGGAAATGG	0.979 ± 0.034

Sequence	switch fluorescence ratio
AGGGAACGAC	1.03 ± 0.05
AGGGAAGAGA	1 ± 0.021
AGGGAATCGG	0.976 ± 0.03
AGGGAATGAT	1.01 ± 0.015
AGGGACGGGG	0.991 ± 0.047
AGGGAGAGTT	1.02 ± 0.017
AGGGAGCAGT	1.018 ± 0.01
AGGGAGGACT	1.022 ± 0.009
AGGGAGGATC	1.02 ± 0.017
AGGGAGGGAA	1.01 ± 0.022
AGGGAGGGTA	0.9889 ± 0.0098
AGGGAGGTCG	0.973 ± 0.035
AGGGAGTCTG	1.018 ± 0.0035
AGGGATCAGC	1 ± 0.008
AGGGATGCGG	0.99607 ± 0.00094
AGGGATGGGA	1.01 ± 0.019
AGGGATGTCC	1.01 ± 0.044
AGGGATGTTT	0.999 ± 0.026
AGGGCAGGGC	0.917 ± 0.069
AGGGCAGTGG	0.9796 ± 0.0025
AGGGCATAGG	0.9652 ± 0.0066
AGGGCCAGGT	1.11 ± 0.023
AGGGCCAGTC	0.998 ± 0.074
AGGGCCGTTG	0.996 ± 0.035
AGGGCGAAGA	0.96 ± 0.022

Sequence	switch fluorescence ratio
AGGGCGCGTG	0.995 ± 0.05
AGGGCGGATT	1.01 ± 0.031
AGGGCGGGAT	0.965 ± 0.049
AGGGCTGAGC	0.996 ± 0.052
AGGGCTTTAC	1.1314 ± 8.1e-05
AGGGGAAATG	0.9645 ± 0.0024
AGGGGAGAGG	0.992 ± 0.01
AGGGGAGGAT	1.1 ± 0.15
AGGGGAGGGG	1.02 ± 0.042
AGGGGAGTCG	0.987 ± 0.021
AGGGGAGTTC	1.04 ± 0.035
AGGGGATATT	0.996 ± 0.01
AGGGGATCAA	0.985 ± 0.015
AGGGGCAGTT	0.985 ± 0.02
AGGGGCCAGT	0.98 ± 0.019
AGGGGCGGTG	0.994 ± 0.017
AGGGGCGTGA	0.99 ± 0.011
AGGGGCTGCG	0.938 ± 0.029
AGGGGGAAAA	1.47 ± 0.69
AGGGGGAAAT	0.987 ± 0.035
AGGGGGAACG	1.01 ± 0.016
AGGGGGAAGT	0.99 ± 0.045
AGGGGGAGGA	1.01 ± 0.04
AGGGGGAGTC	1.02 ± 0.053
AGGGGGATGT	0.974 ± 0.05

Sequence	switch fluorescence ratio
AGGGGGCATC	1.01 ± 0.07
AGGGGGCGCC	1.02 ± 0.016
AGGGGGGAAC	1.01 ± 0.024
AGGGGGGAAG	0.989 ± 0.023
AGGGGGGATC	1.01 ± 0.046
AGGGGGGCT	1.01 ± 0.031
AGGGGGGGAC	1 ± 0.021
AGGGGGGGGT	1 ± 0.05
AGGGGGGTCG	0.992 ± 0.072
AGGGGGGTTT	1 ± 0.024
AGGGGGTAAC	1 ± 0.051
AGGGGGTACT	1 ± 0.011
AGGGGGTGCG	0.988 ± 0.029
AGGGGGTGGG	0.989 ± 0.02
AGGGGGTGGT	0.987 ± 0.043
AGGGGGTTAG	0.989 ± 0.03
AGGGGTACTC	0.9982 ± 0.0076
AGGGGTAGGC	0.9893 ± 0.0036
AGGGGTCCCG	0.93546 ± 0.00063
AGGGGTCGCG	0.981 ± 0.0054
AGGGGTCTTA	0.978 ± 0.02
AGGGGTGCTA	0.9996 ± 0.0095
AGGGGTGGTA	0.981 ± 0.043
AGGGGTGTAG	1.03 ± 0.057
AGGGGTGTTG	0.991 ± 0.032

Sequence	switch fluorescence ratio
AGGGGTTAAA	1.01 ± 0.022
AGGGGTTATC	1.02 ± 0.026
AGGGGTTCTG	1.01 ± 0.046
AGGGGTTGAG	0.998 ± 0.036
AGGGGTTTGG	0.983 ± 0.024
AGGGTAAACG	0.986 ± 0.024
AGGGTACGGG	1.063 ± 0.0037
AGGGTATTTA	1.007 ± 0.01
AGGGTATTTG	0.987 ± 0.011
AGGGTCATCT	1.012 ± 0.002
AGGGTCGACT	1.033 ± 0.0095
AGGGTCGGTA	1.02 ± 0.033
AGGGTCTCAT	1.02 ± 0.022
AGGGTCTTGA	1.007 ± 0.0017
AGGGTGAATG	1 ± 0.0097
AGGGTGATTA	1.01 ± 0.018
AGGGTGCGGA	0.989 ± 0.036
AGGGTGGGCT	0.996 ± 0.012
AGGGTGTGCA	0.999 ± 0.049
AGGGTGTGTC	1.007 ± 0.0098
AGGGTTAGGG	1.02 ± 0.03
AGGGTTAGTT	1.01 ± 0.013
AGGGTTCGAC	1.01 ± 0.039
AGGGTTGGCT	1.02 ± 0.052
AGGGTTGGTA	1.01 ± 0.011

Sequence	switch fluorescence ratio
AGGGTTGTGA	1 ± 0.026
AGGGTTTTCG	0.972 ± 0.022
AGGTAAAGGC	1.02 ± 0.022
AGGTAAAGTA	0.915 ± 0.025
AGGTAACGGG	0.987 ± 0.0099
AGGTAAGAGG	0.96 ± 0.026
AGGTAAGTGC	1.025 ± 0.0017
AGGTAATGGT	0.998 ± 0.039
AGGTAATTAG	1 ± 0.012
AGGTACTCCG	1.09 ± 0.015
AGGTAGAGGA	1.01 ± 0.035
AGGTAGTTTG	0.9979 ± 0.0018
AGGTAGTTTT	0.982 ± 0.011
AGGTATAGGA	1.01 ± 0.013
AGGTCAAGAA	1.07 ± 0.079
AGGTCAGCCT	1.03 ± 0.029
AGGTCAGCTG	0.99 ± 0.018
AGGTCGGCAA	1.02 ± 0.014
AGGTCGGCTT	1.006 ± 0.0024
AGGTCGGGCG	0.982 ± 0.026
AGGTCTAGAC	1.04 ± 0.0095
AGGTCTAGAG	0.976 ± 0.024
AGGTCTCTTT	0.982 ± 0.021
AGGTCTGGCA	0.995 ± 0.016
AGGTGACAGT	0.982 ± 0.021

Sequence	switch fluorescence ratio
AGGTGACGAG	1.02 ± 0.014
AGGTGAGGGC	1.02 ± 0.015
AGGTGATGGT	0.997 ± 0.023
AGGTGCATAA	1.05 ± 0.017
AGGTGCTACG	1.03 ± 0.012
AGGTGCTCAT	1.02 ± 0.036
AGGTGCTTGA	0.975 ± 0.078
AGGTGGGATT	1.02 ± 0.033
AGGTGGGCGG	0.969 ± 0.022
AGGTGGGGTT	0.996 ± 0.051
AGGTGGGTGG	1.02 ± 0.04
AGGTGGTCGG	0.966 ± 0.038
AGGTGGTTTT	1.014 ± 0.0041
AGGTGTAATT	0.987 ± 0.031
AGGTGTATGT	1.01 ± 0.061
AGGTGTCGTC	0.975 ± 0.018
AGGTGTGTAG	0.99 ± 0.032
AGGTGTTAGC	0.955 ± 0.046
AGGTTAAGGA	1.04 ± 0.087
AGGTTAATAT	1 ± 0.043
AGGTTACCGG	0.987 ± 0.019
AGGTTAGAGG	0.993 ± 0.016
AGGTTATGCA	1.01 ± 0.032
AGGTTATGGG	1.04 ± 0.082
AGGTTATTA	0.9856 ± 0.0031

Sequence	switch fluorescence ratio
AGGTTATTAT	0.999 ± 0.029
AGGTTCAGCA	1 ± 0.013
AGGTTGAAG	0.976 ± 0.034
AGGTTGAAGC	0.993 ± 0.017
AGGTTGAGGG	0.984 ± 0.025
AGGTTGCGAT	1.01 ± 0.013
AGGTTGCTCT	0.9947 ± 0.0098
AGGTTGGGTG	1.05 ± 0.013
AGGTTGGGTT	0.997 ± 0.023
AGGTTGTAAT	1 ± 0.016
AGGTTGTCAA	0.969 ± 0.028
AGGTTTAGTA	1.02 ± 0.015
AGGTTTGGCT	1.01 ± 0.028
AGGTTTGGTT	1.01 ± 0.04
AGGTTTGTAG	0.983 ± 0.013
AGGTTTTTAG	0.944 ± 0.024
AGGTTTTTCA	0.983 ± 0.017
AGGTTTTTCT	0.987 ± 0.024
AGTAAAAAGG	0.993 ± 0.021
AGTAAAAAGT	1.02 ± 0.026
AGTAAAATGG	1.01 ± 0.038
AGTAAACCAT	1.04 ± 0.03
AGTAAAGTGC	1.03 ± 0.045
AGTAAAGTTA	1.008 ± 0.008
AGTAAATATA	0.993 ± 0.022
